Paper PMC6287623

How the values were obtained:
[1] = biological target: Manα2Manα2Manα-ThrB27 insulin glycoform 13 (human); assay: AUC
[2] = biological target: unglycosylated human insulin 1 (human); assay: AUC

percent monomer [1] [%] | stoichiometry N [2] | Substance
> 70 | – | Manα2Manα2Manα-ThrB27 insulin glycoform 13 (natural protein)
– | 2 | unglycosylated human insulin 1 (natural protein)
